Tests used:
P2-AA = molecular target: T1, P2-AA; assay: two-hybrid library CCmax; conditions: mean of both orientations;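 also: natural log of median RNA to DNA barcode read ratio; higher means stronger binding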
T1 chain: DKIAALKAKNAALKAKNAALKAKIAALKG

P2-AA-1HAA-V = molecular target: T2, P2-AA-1HAA-V; assay: two-hybrid library CCmax; conditions: mean of both orientations;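 also: natural log of median RNA to DNA barcode read ratio; higher means stronger binding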
T2 chain: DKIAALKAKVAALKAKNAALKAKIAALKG

P2-AA-1HAA-D = molecular target: T3, P2-AA-1HAA-D; assay: two-hybrid library CCmax; conditions: mean of both orientations;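 also: natural log of median RNA to DNA barcode read ratio; higher means stronger binding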
T3 chain: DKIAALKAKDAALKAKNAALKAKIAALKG

P2-AA-1HAA-T = molecular target: T4, P2-AA-1HAA-T; assay: two-hybrid library CCmax; conditions: mean of both orientations;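 also: natural log of median RNA to DNA barcode read ratio; higher means stronger binding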
T4 chain: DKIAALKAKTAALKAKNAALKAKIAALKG

P2-AA-1HAA-E = molecular target: T5, P2-AA-1HAA-E; assay: two-hybrid library CCmax; conditions: mean of both orientations;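 also: natural log of median RNA to DNA barcode read ratio; higher means stronger binding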
T5 chain: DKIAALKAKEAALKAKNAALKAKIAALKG

P2-AA-1HAA-I = molecular target: T6, P2-AA-1HAA-I; assay: two-hybrid library CCmax; conditions: mean of both orientations;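 also: natural log of median RNA to DNA barcode read ratio; higher means stronger binding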
T6 chain: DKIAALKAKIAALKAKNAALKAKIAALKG

4H2915-bA = molecular target: T7, 4H2915-bA; assay: two-hybrid library CCNG1
T7 chain: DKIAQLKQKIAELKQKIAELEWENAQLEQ

O6-bP = molecular target: T8, O6-bP; assay: two-hybrid library CCNG1
T8 chain: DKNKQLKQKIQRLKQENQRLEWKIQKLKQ

4H3277-bA = molecular target: T9, 4H3277-bA; assay: two-hybrid library CCNG1
T9 chain: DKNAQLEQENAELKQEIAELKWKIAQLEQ

4H2839-bA = molecular target: T10, 4H2839-bA; assay: two-hybrid library CCNG1
T10 chain: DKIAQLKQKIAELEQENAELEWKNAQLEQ

4H3298-bA = molecular target: T11, 4H3298-bA; assay: two-hybrid library CCNG1
T11 chain: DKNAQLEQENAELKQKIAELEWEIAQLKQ

4H492-bA = molecular target: T12, 4H492-bA; assay: two-hybrid library CCNG1
T12 chain: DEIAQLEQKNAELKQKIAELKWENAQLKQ

4H40-bA = molecular target: T13, 4H40-bA; assay: two-hybrid library CCNG1
T13 chain: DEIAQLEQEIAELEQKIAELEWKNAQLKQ

4H2859-bH = molecular target: T14, 4H2859-bH; assay: two-hybrid library CCNG1
T14 chain: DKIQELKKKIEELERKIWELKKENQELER

4H2717-bA = molecular target: T15, 4H2717-bA; assay: two-hybrid library CCNG1
T15 chain: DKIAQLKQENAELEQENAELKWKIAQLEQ

4H3057-bA = molecular target: T16, 4H3057-bA; assay: two-hybrid library CCNG1
T16 chain: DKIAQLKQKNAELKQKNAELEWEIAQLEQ

4H319-bN = molecular target: T17, 4H319-bN; assay: two-hybrid library CCNG1
T17 chain: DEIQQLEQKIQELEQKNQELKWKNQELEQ

4H2692-bA = molecular target: T18, 4H2692-bA; assay: two-hybrid library CCNG1
T18 chain: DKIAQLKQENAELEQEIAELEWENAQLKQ

4H319-bA = molecular target: T19, 4H319-bA; assay: two-hybrid library CCNG1
T19 chain: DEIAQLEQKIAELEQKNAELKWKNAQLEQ

4H348-bA = molecular target: T20, 4H348-bA; assay: two-hybrid library CCNG1
T20 chain: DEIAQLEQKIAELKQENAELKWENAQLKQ

4H741-bA = molecular target: T21, 4H741-bA; assay: two-hybrid library CCNG1
T21 chain: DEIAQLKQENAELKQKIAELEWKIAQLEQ

4H477-bA = molecular target: T22, 4H477-bA; assay: two-hybrid library CCNG1
T22 chain: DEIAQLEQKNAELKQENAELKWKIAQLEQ

4H949-bA = molecular target: T23, 4H949-bA; assay: two-hybrid library CCNG1
T23 chain: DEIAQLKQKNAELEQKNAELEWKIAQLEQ

4H796-bA = molecular target: T24, 4H796-bA; assay: two-hybrid library CCNG1
T24 chain: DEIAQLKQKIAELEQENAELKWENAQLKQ

P7SHb = molecular target: T25, P7SHb; assay: two-hybrid library CCNG1
T25 chain: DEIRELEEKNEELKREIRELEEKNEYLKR

4H56-bA = molecular target: T26, 4H56-bA; assay: two-hybrid library CCNG1
T26 chain: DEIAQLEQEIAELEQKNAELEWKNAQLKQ

4H730-bA = molecular target: T27, 4H730-bA; assay: two-hybrid library CCNG1
T27 chain: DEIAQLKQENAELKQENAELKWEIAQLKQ

4H932-bA = molecular target: T28, 4H932-bA; assay: two-hybrid library CCNG1
T28 chain: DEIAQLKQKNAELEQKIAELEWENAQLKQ

4H850-bN = molecular target: T29, 4H850-bN; assay: two-hybrid library CCNG1
T29 chain: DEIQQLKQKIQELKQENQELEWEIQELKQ

4H3638-bN = molecular target: T30, 4H3638-bN; assay: two-hybrid library CCNG1
T30 chain: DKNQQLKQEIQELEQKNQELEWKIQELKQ

4H619-bN = molecular target: T31, 4H619-bN; assay: two-hybrid library CCNG1
T31 chain: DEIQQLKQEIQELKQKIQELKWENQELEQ

4H3172-bN = molecular target: T32, 4H3172-bN; assay: two-hybrid library CCNG1
T32 chain: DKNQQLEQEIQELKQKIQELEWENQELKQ

4H3631-bN = molecular target: T33, 4H3631-bN; assay: two-hybrid library CCNG1
T33 chain: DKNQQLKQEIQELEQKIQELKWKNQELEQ

4H584-bN = molecular target: T34, 4H584-bN; assay: two-hybrid library CCNG1
T34 chain: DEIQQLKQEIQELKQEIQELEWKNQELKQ

4H906-bN = molecular target: T35, 4H906-bN; assay: two-hybrid library CCNG1
T35 chain: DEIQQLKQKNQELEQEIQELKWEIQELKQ

4H570-bN = molecular target: T36, 4H570-bN; assay: two-hybrid library CCNG1
T36 chain: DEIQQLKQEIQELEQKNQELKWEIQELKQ

4H3974-bN = molecular target: T37, 4H3974-bN; assay: two-hybrid library CCNG1
T37 chain: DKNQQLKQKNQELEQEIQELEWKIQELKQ

4H3414-bN = molecular target: T38, 4H3414-bN; assay: two-hybrid library CCNG1
T38 chain: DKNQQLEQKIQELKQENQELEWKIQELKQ

4H3817-bN = molecular target: T39, 4H3817-bN; assay: two-hybrid library CCNG1
T39 chain: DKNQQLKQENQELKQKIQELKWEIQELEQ

B1: P1-AA-1HAA-V (peptide)
chain: DEIAALEAEVAALEAENAALEAEIAALEG
P2-AA
  interaction score: 2.01
P2-AA-1HAA-V
  interaction score: 2.01
P2-AA-1HAA-D
  interaction score: 1.95
P2-AA-1HAA-T
  interaction score: 2.16
P2-AA-1HAA-E
  interaction score: 1.98
P2-AA-1HAA-I
  interaction score: 2.11

B2: 4H2692-bA (peptide)
chain: DKIAQLKQENAELEQEIAELEWENAQLKQ
4H2915-bA
  interaction score: 0.654
O6-bP
  interaction score: 0.95
4H3277-bA
  interaction score: -0.458
4H2839-bA
  interaction score: -1.15
4H3298-bA
  interaction score: 1.59
4H492-bA
  interaction score: 2.26
4H40-bA
  interaction score: -0.113
4H2859-bH
  interaction score: -0.0963
4H2717-bA
  interaction score: -0.0486
4H3057-bA
  interaction score: -0.734
4H319-bN
  interaction score: 0.192
4H2692-bA
  interaction score: -0.461
4H319-bA
  interaction score: -0.498
4H348-bA
  interaction score: -1.58
4H741-bA
  interaction score: -0.251
4H477-bA
  interaction score: -1.06

B3: 4H56-bA (peptide)
chain: DEIAQLEQEIAELEQKNAELEWKNAQLKQ
4H949-bA
  interaction score: -0.628
4H796-bA
  interaction score: -0.775
P7SHb
  interaction score: 0.584
4H56-bA
  interaction score: -0.593
4H730-bA
  interaction score: -1.15
4H932-bA
  interaction score: -0.898

B4: 4H3172-bN (peptide)
chain: DKNQQLEQEIQELKQKIQELEWENQELKQ
4H850-bN
  interaction score: -0.789
4H3638-bN
  interaction score: -0.362
4H619-bN
  interaction score: 0.271
4H3172-bN
  interaction score: -0.109
4H3631-bN
  interaction score: 1.27
4H584-bN
  interaction score: -0.681
4H906-bN
  interaction score: -1.5
4H570-bN
  interaction score: -0.602
4H3974-bN
  interaction score: -0.234
4H3414-bN
  interaction score: 0.0803
4H3817-bN
  interaction score: -0.519

— article PMC10397247
